The target of the test is T1, His-DAPK1 (848–1288 aa) (UniProt P53355 848-1288).
T1 construct: source: purified recombinant protein
T1 sequence (looked up): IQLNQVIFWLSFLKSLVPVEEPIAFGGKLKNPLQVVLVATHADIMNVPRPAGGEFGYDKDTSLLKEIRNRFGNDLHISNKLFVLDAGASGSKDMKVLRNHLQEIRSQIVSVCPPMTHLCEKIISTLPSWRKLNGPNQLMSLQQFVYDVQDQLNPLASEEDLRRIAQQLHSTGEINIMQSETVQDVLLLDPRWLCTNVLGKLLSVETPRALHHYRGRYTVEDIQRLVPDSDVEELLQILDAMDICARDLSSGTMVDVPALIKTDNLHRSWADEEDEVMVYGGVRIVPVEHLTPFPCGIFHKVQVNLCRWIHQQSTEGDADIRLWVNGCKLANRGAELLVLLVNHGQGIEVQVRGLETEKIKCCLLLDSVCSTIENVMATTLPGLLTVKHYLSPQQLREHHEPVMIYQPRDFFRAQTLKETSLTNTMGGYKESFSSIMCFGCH
Kind of test: pull-down; purified His-DAPK1 (848–1288 aa) incubated with GST or GST-SENP1 proteins; immunoblot with an anti-His antibody. The following applies: both partners purified.

B1: GST-SENP1 (1-200 aa) (domain or fragment, UniProt Q9P0U3 1-200, looked up)
chain: MDDIADRMRMDAGEVTLVNHNSVFKTHLLPQTGFPEDQLSLSDQQILSSRQGHLDRSFTCSTRSAAYNPSYYSDNPSSDSFLGSGDLRTFGQSANGQWRNSTPSSSSSLQKSRNSRSLYLETRKTSSGLSNSFAGKSNHHCHVSAYEKSFPIKPVPSPSWSGSCRRSLLSPKKTQRRHVSTAEETVQEEEREIYRQLLQM
notes: Sentrin-specific protease 1 (SENP1), N-terminal region, residues 1-200; also called N-terminal region (1-200 aa) of SENP1; source: E. coli, purified GST fusion protein
For B1, the binding result is “binds”.
